Experimental data published in patent US12522842B2, “Glutamine synthetase mutant having glufosinate resistance and application thereof and cultivation method therefor” (GEVOTO LLC, priority 2019, dated 2026).

Tested on: glutamine synthetase-deficient Escherichia coli
Assay: Growth of glutamine synthetase-deficient E. coli transformed with GS mutants in M9 medium containing glufosinate
Format: cell-based
Details: for growth of transformed GS-deficient E. coli (normal GS enzymatic activity): medium containing 0 mM glufosinate
From the text: According to the sequences of the nucleic acid molecules provided in Example 4, the nucleic acid sequences encoding rice GS mutants OsA, OsC, OsD, OsE, OsF, OsG, OsH, OsI, OsK, OsP, OST, OsV, and OsY were synthesized using chemical synthesis method. Restriction digestion sites (Pac1 and Sbf1) were introduced at both ends thereof, and after restriction digestion, they were linked under the action of ligase to an expression vector (such as pADV7 vector, whose structure is shown in FIG. 4) that was subjected to the same restriction digestion treatment. Then, glutamine synthetase-deficient Escherichia coli was transformed with the resultant. After verification, positive clones were picked up and inoculated in M9 medium containing different concentrations of glufosinate to grow, and the growth status of defective Escherichia coli was observed.
With wild-type rice GS (its amino acid sequence shown in SEQ ID NO. 1 and its encoding gene shown in SEQ ID NO. 4) as a negative control, the glufosinate resistance for the GS mutant OsA (S59A, wherein the amino acid S at site 59 of the rice GS is mutated into A), OsC (S59C), OsD (S59D), OsE (S59E), OsF (S59F), OsG (S59G), OsH (S59H), OsI (S591), OsK (S59K), OsP (S59P), OsT (S59T), OsV (S59V), OsY (S59Y) was detected.
With reference to the detection method of Experimental Example 1, glufosinate resistance of the rice GS mutant OsGR (S59G and H296R, the amino acid S at site 59 of rice GS is mutated into G and the amino acid H at site 296 is mutated into R), the wheat GS mutant TaGR (S59G and H296R, the amino acid S at site 59 of wheat GS is mutated into G and the amino acid H at site 296 is mutated into R), the soybean GS mutant GmGR (S59G and H296R, the amino acid S at site 59 of soybean GS is mutated into G and the amino acid H at site 296 is mutated into R) provided in Example 2 was verified.
With reference to Experimental example 1, the glufosinate resistance of rice GS mutants OA, OD, OE, OG, OI, OK, OM, OP, OQ, OR, OS, OT, and OV provided in Example 3 was detected according to the following method.
With wild-type rice GS as a negative control, the glufosinate resistance of GS mutants OA (H296A, amino acid H at site 296 of rice GS is mutated into A), OD (H296D), OE (H296E), OG (H296G), OI (H2961), OK (H296K), OM (H296M), OP (H296P), OQ (H296Q), OR (H296R), OS (H296S), OT (H296T), OV (H296V) was detected.

[1] = medium containing 10 mM glufosinate
[2] = medium with 50 mM/100 mM glufosinate

Molecule | growth of transformed GS-deficient E. coli (normal GS enzymatic activity) | growth of transformed E. coli (glufosinate resistance) [1] | growth of transformed E. coli (glufosinate resistance) [2]
OsK (protein, OsK) MASLTDLVNLNLSDTTEKIIAEYIWIGGSGMDLRSKARTLSGPVTDPSKLPKWNYDGSKTGQAPGEDSEVILYPQAIFKDPFRKGNNILVMCDCYTPAGEPIPTNKRHNAAKIFSSPEVASEEPWYGIEQEYTLLQKDINWPLGWPVGGFPGPQGPYYCGIGADKSFGRDIVDSHYKACLYAGINISGINGEVMPGQWEFQVGPSVGISAGDQVWVARYILERITEIAGVVVSFDPKPIPGDWNGAGAHTNYSTKSMRNDGGYEIIKSAIEKLKLRHKEHISAYGEGNERRLTGRHETADINTFSWGVANRGASVRVGRETEQNGKGYFEDRRPASNMDPYIVTSMIAETTIIWKP | could normally grow | significantly superior to that of the negative control | significantly grew
OsP (protein, OsP) MASLTDLVNLNLSDTTEKIIAEYIWIGGSGMDLRSKARTLSGPVTDPSKLPKWNYDGSPTGQAPGEDSEVILYPQAIFKDPFRKGNNILVMCDCYTPAGEPIPTNKRHNAAKIFSSPEVASEEPWYGIEQEYTLLQKDINWPLGWPVGGFPGPQGPYYCGIGADKSFGRDIVDSHYKACLYAGINISGINGEVMPGQWEFQVGPSVGISAGDQVWVARYILERITEIAGVVVSFDPKPIPGDWNGAGAHTNYSTKSMRNDGGYEIIKSAIEKLKLRHKEHISAYGEGNERRLTGRHETADINTFSWGVANRGASVRVGRETEQNGKGYFEDRRPASNMDPYIVTSMIAETTIIWKP | could normally grow | significantly superior to that of the negative control | significantly grew
OsF (protein, OsF) MASLTDLVNLNLSDTTEKIIAEYIWIGGSGMDLRSKARTLSGPVTDPSKLPKWNYDGSFTGQAPGEDSEVILYPQAIFKDPFRKGNNILVMCDCYTPAGEPIPTNKRHNAAKIFSSPEVASEEPWYGIEQEYTLLQKDINWPLGWPVGGFPGPQGPYYCGIGADKSFGRDIVDSHYKACLYAGINISGINGEVMPGQWEFQVGPSVGISAGDQVWVARYILERITEIAGVVVSFDPKPIPGDWNGAGAHTNYSTKSMRNDGGYEIIKSAIEKLKLRHKEHISAYGEGNERRLTGRHETADINTFSWGVANRGASVRVGRETEQNGKGYFEDRRPASNMDPYIVTSMIAETTIIWKP | could normally grow | significantly superior to that of the negative control | significantly grew
OsE (protein, OsE) MASLTDLVNLNLSDTTEKIIAEYIWIGGSGMDLRSKARTLSGPVTDPSKLPKWNYDGSETGQAPGEDSEVILYPQAIFKDPFRKGNNILVMCDCYTPAGEPIPTNKRHNAAKIFSSPEVASEEPWYGIEQEYTLLQKDINWPLGWPVGGFPGPQGPYYCGIGADKSFGRDIVDSHYKACLYAGINISGINGEVMPGQWEFQVGPSVGISAGDQVWVARYILERITEIAGVVVSFDPKPIPGDWNGAGAHTNYSTKSMRNDGGYEIIKSAIEKLKLRHKEHISAYGEGNERRLTGRHETADINTFSWGVANRGASVRVGRETEQNGKGYFEDRRPASNMDPYIVTSMIAETTIIWKP | could normally grow | significantly superior to that of the negative control | 
OsV (protein, OsV) MASLTDLVNLNLSDTTEKIIAEYIWIGGSGMDLRSKARTLSGPVTDPSKLPKWNYDGSVTGQAPGEDSEVILYPQAIFKDPFRKGNNILVMCDCYTPAGEPIPTNKRHNAAKIFSSPEVASEEPWYGIEQEYTLLQKDINWPLGWPVGGFPGPQGPYYCGIGADKSFGRDIVDSHYKACLYAGINISGINGEVMPGQWEFQVGPSVGISAGDQVWVARYILERITEIAGVVVSFDPKPIPGDWNGAGAHTNYSTKSMRNDGGYEIIKSAIEKLKLRHKEHISAYGEGNERRLTGRHETADINTFSWGVANRGASVRVGRETEQNGKGYFEDRRPASNMDPYIVTSMIAETTIIWKP | could normally grow | significantly superior to that of the negative control | 
OsC (protein, OsC) MASLTDLVNLNLSDTTEKIIAEYIWIGGSGMDLRSKARTLSGPVTDPSKLPKWNYDGSCTGQAPGEDSEVILYPQAIFKDPFRKGNNILVMCDCYTPAGEPIPTNKRHNAAKIFSSPEVASEEPWYGIEQEYTLLQKDINWPLGWPVGGFPGPQGPYYCGIGADKSFGRDIVDSHYKACLYAGINISGINGEVMPGQWEFQVGPSVGISAGDQVWVARYILERITEIAGVVVSFDPKPIPGDWNGAGAHTNYSTKSMRNDGGYEIIKSAIEKLKLRHKEHISAYGEGNERRLTGRHETADINTFSWGVANRGASVRVGRETEQNGKGYFEDRRPASNMDPYIVTSMIAETTIIWKP | could normally grow | significantly superior to that of the negative control | significantly grew
OsA (protein, OsA) MASLTDLVNLNLSDTTEKIIAEYIWIGGSGMDLRSKARTLSGPVTDPSKLPKWNYDGSATGQAPGEDSEVILYPQAIFKDPFRKGNNILVMCDCYTPAGEPIPTNKRHNAAKIFSSPEVASEEPWYGIEQEYTLLQKDINWPLGWPVGGFPGPQGPYYCGIGADKSFGRDIVDSHYKACLYAGINISGINGEVMPGQWEFQVGPSVGISAGDQVWVARYILERITEIAGVVVSFDPKPIPGDWNGAGAHTNYSTKSMRNDGGYEIIKSAIEKLKLRHKEHISAYGEGNERRLTGRHETADINTFSWGVANRGASVRVGRETEQNGKGYFEDRRPASNMDPYIVTSMIAETTIIWKP | could normally grow | significantly superior to that of the negative control | 
OsD (protein, OsD) MASLTDLVNLNLSDTTEKIIAEYIWIGGSGMDLRSKARTLSGPVTDPSKLPKWNYDGSDTGQAPGEDSEVILYPQAIFKDPFRKGNNILVMCDCYTPAGEPIPTNKRHNAAKIFSSPEVASEEPWYGIEQEYTLLQKDINWPLGWPVGGFPGPQGPYYCGIGADKSFGRDIVDSHYKACLYAGINISGINGEVMPGQWEFQVGPSVGISAGDQVWVARYILERITEIAGVVVSFDPKPIPGDWNGAGAHTNYSTKSMRNDGGYEIIKSAIEKLKLRHKEHISAYGEGNERRLTGRHETADINTFSWGVANRGASVRVGRETEQNGKGYFEDRRPASNMDPYIVTSMIAETTIIWKP | could normally grow | significantly superior to that of the negative control | significantly grew
